[ ]: non-standard residue; d: D form. pY = N[C@@H](Cc1ccc(OP(=O)(O)O)cc1)C(=O)O

This note sets out measurements from patent publication US20070010428A1, “Inhibitors of signal transduction and activator of transcription 3” (priority 2004, published 2007).

For assay [1], the target named is Stat3 (as in the EMSA of Table 1), P40763. Put plainly: EMSA: inhibition of Stat3 dimerization and DNA binding, average of two determinations.
Assay [2] has as its target full length Stat3, P40763. As to the kind of experiment: fluorescence polarization, full length Stat3 titrated into the FP probe.

Sequence of Stat3 (as in the EMSA of Table 1), P40763 (P40763 whole entry): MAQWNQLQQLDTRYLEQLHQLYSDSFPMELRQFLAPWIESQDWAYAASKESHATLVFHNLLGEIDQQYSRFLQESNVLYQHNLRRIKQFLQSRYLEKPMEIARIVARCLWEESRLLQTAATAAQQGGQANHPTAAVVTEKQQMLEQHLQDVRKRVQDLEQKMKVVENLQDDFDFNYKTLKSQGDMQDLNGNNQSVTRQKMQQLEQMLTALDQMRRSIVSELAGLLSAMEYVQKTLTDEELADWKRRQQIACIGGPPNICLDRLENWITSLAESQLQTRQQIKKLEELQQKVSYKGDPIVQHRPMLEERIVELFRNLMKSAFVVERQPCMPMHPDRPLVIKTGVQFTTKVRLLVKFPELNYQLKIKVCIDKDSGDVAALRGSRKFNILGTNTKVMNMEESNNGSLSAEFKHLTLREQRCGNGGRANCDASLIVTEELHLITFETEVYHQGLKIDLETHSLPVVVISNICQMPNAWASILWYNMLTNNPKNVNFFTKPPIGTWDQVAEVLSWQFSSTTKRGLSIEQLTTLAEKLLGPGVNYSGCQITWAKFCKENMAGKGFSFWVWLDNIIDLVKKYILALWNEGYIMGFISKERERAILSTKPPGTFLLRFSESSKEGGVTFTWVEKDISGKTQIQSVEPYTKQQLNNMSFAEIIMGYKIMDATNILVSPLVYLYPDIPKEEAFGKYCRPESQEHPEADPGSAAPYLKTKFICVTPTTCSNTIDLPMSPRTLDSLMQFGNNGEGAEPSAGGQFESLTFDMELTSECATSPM
Sequence of full length Stat3, P40763 (P40763 whole entry): as above

B1: Ac-pTyr-Leu-Lys-Thr-Lys-Phe-NH2 (peptide)
chain: Ac-[pY]LKTKF-NH2
SMILES: CC(=O)N[C@@H](Cc1ccc(OP(=O)(O)O)cc1)C(=O)N[C@@H](CC(C)C)C(=O)N[C@@H](CCCCN)C(=O)N[C@H](C(=O)N[C@@H](CCCCN)C(=O)N[C@@H](Cc1ccccc1)C(N)=O)[C@@H](C)O
In general, IC50 refers to the concentration at which inhibition is half-maximal. The low end stands for greater potency, the high end for weaker potency. For B1, the IC50 in assay [1] turned out to be 20 µM.
The term Kd denotes the equilibrium constant for the complex coming apart. Low readings indicate a tighter complex, high ones a looser complex. {fluorescein‑5‑carboxyl}-A[pY]LPQTV-NH2 [fluorescein-5-carboxyl-Ala-pTyr-Leu-Pro-Gln-Thr-Val-NH2]: the Kd in assay [2] came to 0.05 µM.
In assay [1], YHNQPL (modifications not checked) [Ac-Y(p)HNQPL-NH2 (EGFR Tyr 1086 hexapeptide)] registered an IC50 of 150 µM.
Still for that read-out and setting: then YINQSV (modifications not checked) [Ac-Y(p)INQSV-NH2 (EGFR Tyr 1068 hexapeptide)], with 30 µM.
